# B1: KLEST-3S esterase (E34Tt, N-terminally truncated ∆N16 variant) (Thermus thermophilus HB27) (protein)
# chain: QGLEAFWKAVEVPGGVCADGSPYRFYVSPGDPRKVVVDFQGGGACWDQATCGPESRTYRKRVDVQELYLAQGIYNRMSVANPFFGWTHVFVPYCTGDLHVGRATVDYGGFKVHHQGARNAQAALEYVFRNHTNPERVFVTGCSAGAYGAVLWADKILATYKNAQIAVCGDAGVGVVTEDFPGFTAWNPRLPELPGLSSPPKVSEIYRALAQAYPKAVLAQYTTLLDGTQIYFYALMKKEAAPSEATAREWAVAAERAVGFPASEANYTYYLAPGSQHCILPRPELYTLKVGEVSFLDWLRALAEGRTPPRVRP
# notes: ∆N16 (putative secretion signal removed; printed cleavage site between residues 16 and 17); secreted by Kluyveromyces lactis NRRL-Y1140; cell-free medium concentrated by ultrafiltration, partially purified, essentially free of contaminant proteins
# How the values were obtained:
# Experiment in all cases: purified protein
# Type in all cases: biochemical, Thermus thermophilus
# Settings in all cases: pH 7.5, 47.5 °C, 10% (v/v) isopropanol, enzyme prediluted in 50 mM phosphate
# [1] = substrate: CCCCCCCC(=O)Oc1ccc([N+](=O)[O-])cc1
# [2] = substrate: CCCCCCCCCC(=O)Oc1ccc([N+](=O)[O-])cc1
# [3] = substrate: CCCCCCCCCCCC(=O)Oc1ccc([N+](=O)[O-])cc1
# [4] = substrate: CCCCCCCCCCCCCC(=O)Oc1ccc([N+](=O)[O-])cc1
protein,measurement,setting,value
B1,Km,[1],130 ± 30 µM
same,kcat/Km,[1],3.95e+07 M⁻¹ s⁻¹
same,Km,[2],90 ± 10 µM
same,kcat/Km,[2],4.59e+07 M⁻¹ s⁻¹
same,Km,[3],140 ± 30 µM
same,kcat/Km,[3],2.34e+07 M⁻¹ s⁻¹
same,Km,[4],190 ± 40 µM
same,kcat/Km,[4],322000 M⁻¹ s⁻¹
